Measurements reported in patent US20240132578A1.

Assays:
Experiment in all cases: cell-based or functional assay
[1] = target: HIV-1 Env of isolate MGRM-D-020 (clade D pseudovirus) (HIV-1)
[2] = target: HIV-1 Env of pseudovirus MGRM-G-019 (HIV-1)
[3] = target: HIV-1 Env of isolate PVO.4 (Acute), clade B (HIV-1)
[4] = target: HIV-1 MGRM-AG-005 Env (pseudovirus) (HIV-1)
[5] = target: HIV-1 envelope glycoprotein (Env) of isolate MGRM-C-006 (HIV-1)
[6] = target: HIV-1 Env of isolate MGRM-G-014 (subtype G) (HIV-1)
[7] = target: HIV-1 envelope glycoprotein (Env) of isolate MGRM-C-022 (HIV-1)
[8] = target: HIV-1 MGRM-AG-003 Env (pseudovirus) (HIV-1)
[9] = target: HIV-1 Env of isolate MGRM-G-006 (subtype G) (HIV-1)
[10] = target: HIV-1 92RW024 envelope glycoprotein (Env) on pseudovirus (HIV-1 (clade A))
[11] = target: HIV-1 MGRM-D-018 Env (HIV-1)
HIV-1 APV6 Env (HIV-1) = target: HIV-1 APV6 Env (HIV-1)
[12] = target: HIV-1 Env of isolate MGRM-AE-002 (pseudovirus) (HIV-1)
[13] = target: HIV-1 Env of pseudovirus MGRM-F1-022 (clade F) (HIV-1)
[14] = target: HIV-1 MGRM-AE-006 Env (pseudovirus) (HIV-1)
[15] = target: HIV-1 Env of isolate MGRM-AG-002 (pseudovirus) (HIV-1)
[16] = target: HIV-1 Env of isolate MGRM-G-019 (subtype G) (HIV-1)
[17] = target: HIV-1 envelope glycoprotein (Env) of isolate MGRM-AE-002, subtype AE (HIV-1)
[18] = target: HIV-1 envelope glycoprotein (Env) of isolate MGRM-Chronic-B-017, on pseudovirus (HIV-1)
[19] = target: HIV-1 envelope glycoprotein (Env) of isolate MGRM-Chronic-B-018, on pseudovirus (HIV-1)
[20] = target: HIV-1 envelope glycoprotein (Env) of isolate MG RM-A-006, subtype A (HIV-1)
[21] = target: HIV-1 envelope glycoprotein (Env) of isolate MGRM-Chronic-B-002, on pseudovirus (HIV-1)
[22] = target: HIV-1 Env of isolate MGRM-AG-006 (pseudovirus) (HIV-1)
[23] = target: HIV-1 Env of isolate 92RW009 (subtype A) (HIV-1)
[24] = target: HIV-1 Env of isolate 92RW008 (subtype A) (HIV-1)
[25] = target: HIV-1 Env of isolate MGRM-G-004 (subtype G) (HIV-1)
[26] = target: HIV-1 Env of isolate CMU02 (pseudovirus) (HIV-1)
[27] = target: HIV-1 Env of isolate MGRM-C-025 (subtype C), on pseudovirus (HIV-1)

Sequence of 4970_K22 (PGT-144) (antibody) (VH): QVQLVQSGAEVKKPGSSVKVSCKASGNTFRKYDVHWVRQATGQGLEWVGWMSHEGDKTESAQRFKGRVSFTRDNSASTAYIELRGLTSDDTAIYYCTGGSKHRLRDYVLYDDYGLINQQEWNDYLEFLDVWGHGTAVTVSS
Sequence of 4970_K22 (PGT-144) (antibody) (VL): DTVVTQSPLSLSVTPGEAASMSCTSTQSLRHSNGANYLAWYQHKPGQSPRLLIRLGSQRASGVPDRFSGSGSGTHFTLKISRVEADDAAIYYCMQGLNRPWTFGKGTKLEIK
Sequence of 4980_N08 (PGT-143) (antibody) (VH): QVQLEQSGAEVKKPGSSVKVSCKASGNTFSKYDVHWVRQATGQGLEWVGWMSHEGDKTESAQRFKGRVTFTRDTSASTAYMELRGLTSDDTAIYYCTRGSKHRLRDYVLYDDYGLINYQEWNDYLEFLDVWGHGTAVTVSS
Sequence of 4980_N08 (PGT-143) (antibody) (VL): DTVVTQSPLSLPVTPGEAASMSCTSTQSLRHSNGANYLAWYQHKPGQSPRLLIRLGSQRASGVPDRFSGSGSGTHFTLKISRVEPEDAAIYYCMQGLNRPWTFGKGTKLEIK
Sequence of 4993_K13 (PGT-141) (antibody) (VH): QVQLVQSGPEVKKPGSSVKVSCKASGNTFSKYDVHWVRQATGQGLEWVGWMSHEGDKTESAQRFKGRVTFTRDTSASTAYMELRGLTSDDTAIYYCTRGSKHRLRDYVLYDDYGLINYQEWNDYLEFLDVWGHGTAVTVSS
Sequence of 4993_K13 (PGT-141) (antibody) (VL): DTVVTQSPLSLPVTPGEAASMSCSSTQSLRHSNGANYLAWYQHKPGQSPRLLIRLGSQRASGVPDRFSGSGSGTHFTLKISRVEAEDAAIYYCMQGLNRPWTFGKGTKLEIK
Sequence of 4995_P16 (PGT-145) (antibody) (VH): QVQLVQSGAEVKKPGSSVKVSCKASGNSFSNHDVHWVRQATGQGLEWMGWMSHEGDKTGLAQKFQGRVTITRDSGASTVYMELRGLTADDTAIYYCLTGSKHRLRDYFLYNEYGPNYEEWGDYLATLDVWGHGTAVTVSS
Sequence of 4995_P16 (PGT-145) (antibody) (VL): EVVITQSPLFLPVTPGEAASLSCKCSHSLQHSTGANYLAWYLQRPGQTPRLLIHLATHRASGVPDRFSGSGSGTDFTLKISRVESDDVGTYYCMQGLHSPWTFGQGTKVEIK
Sequence of 4995_E20 (PGT-142) (antibody) (VH): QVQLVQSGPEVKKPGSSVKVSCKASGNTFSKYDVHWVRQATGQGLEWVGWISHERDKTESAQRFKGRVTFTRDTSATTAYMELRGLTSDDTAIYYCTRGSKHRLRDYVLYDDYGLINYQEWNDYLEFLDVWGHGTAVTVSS

| Substance | IC50 (µg/mL), pseudovirus neutralization [6] [µg/mL] | IC50 (µg/mL), pseudovirus neutralization [9] [µg/mL] | IC50, pseudovirus neutralization [11] [µg/mL] | IC50, pseudovirus neutralization (HIV-1 APV6 Env (HIV-1)) [µg/mL] | IC50 (µg/mL), pseudovirus neutralization [15] [µg/mL] | IC50 (µg/mL), pseudovirus neutralization [16] [µg/mL] | IC50, pseudovirus neutralization [17] [µg/mL] | IC50, pseudovirus neutralization [18] [µg/mL] | IC50, pseudovirus neutralization [19] [µg/mL] | IC50, pseudovirus neutralization [20] [µg/mL] | IC50, pseudovirus neutralization [21] [µg/mL] | IC50, pseudovirus neutralization [23] [µg/mL] | IC50, pseudovirus neutralization [24] [µg/mL] | IC50 (µg/mL), pseudovirus neutralization [25] [µg/mL] | IC50 (µg/mL), single-round pseudovirus neutralization [26] [µg/mL] | IC50, single-round pseudovirus neutralization [27] [µg/mL] | IC50 (µg/mL), single-round pseudovirus neutralization [12] [µg/mL] | also measured |
| --- | --- | --- | --- | --- | --- | --- | --- | --- | --- | --- | --- | --- | --- | --- | --- | --- | --- | --- |
| 1496_C09 (PG9) (TCN-109) (antibody) | 16.5 | 1.98 | 2.04 | 0.214 | 0.076 | 14.6 |  |  |  |  |  |  |  |  |  |  |  | IC50, pseudovirus neutralization [1]: 2.03 µg/mL; IC50 (µg/ml), pseudovirus neutralization [2]: 0.67 µg/mL; IC50 (µg/ml), pseudovirus neutralization [3]: 4.01 µg/mL; IC50 (µg/ml), pseudovirus neutralization [4]: 29.7 µg/mL; IC50 (µg/ml), pseudovirus neutralization [5]: 0.23 µg/mL; IC50 (µg/ml), pseudovirus neutralization [7]: 0.19 µg/mL; IC50 (µg/ml), pseudovirus neutralization [8]: 9.71 µg/mL; IC50 (µg/ml), pseudovirus neutralization [10]: 0.18 µg/mL; IC50 (µg/mL), pseudovirus neutralization [12]: 0.04 µg/mL; IC50 [13]: 0.06 µg/mL; IC50 (µg/ml), pseudovirus neutralization [14]: 0.05 µg/mL |
| 4838_L06 (PGT-121) (antibody) |  |  |  |  |  |  | > 50 | > 50 | > 50 | 0.396 | 0.386 |  |  |  |  |  |  |  |
| 4858_P08 (PGT-123) (antibody) |  |  | 0.0047 | 0.0327 | > 50 |  | > 50 | > 50 | > 50 | > 50 | 0.234 |  |  |  |  |  |  | IC50 (µg/mL), pseudovirus neutralization [22]: 0.014 µg/mL |
| 4877_D15 (PGT-122) (antibody) |  |  | 0.0115 | 0.0851 | > 50 |  | > 50 | 5.66 | > 50 | > 50 | 1.8 |  |  |  |  |  |  | IC50 (µg/mL), pseudovirus neutralization [22]: 0.028 µg/mL |
| 4970_K22 (PGT-144) (antibody) | 0.562 | 3.84 |  |  |  | > 50 |  |  |  |  |  | 0.893 | > 50 | > 50 | > 50 | 17.6 | > 50 |  |
| 4980_N08 (PGT-143) (antibody) | 0.107 | 0.031 |  |  |  | 4.77 |  |  |  |  |  | 0.01 | 0.385 | > 50 | > 50 | 0.336 | > 50 |  |
| 4993_K13 (PGT-141) (antibody) | 0.222 | 0.043 |  |  |  | 20.3 |  |  |  |  |  | 0.022 | 0.579 | > 50 | > 50 | 0.247 | > 50 |  |
| 4995_E20 (PGT-142) (antibody) | 0.076 | 0.019 |  |  |  | 5.95 |  |  |  |  |  | 0.006 | 0.447 | > 50 | > 50 | 0.183 | > 50 |  |
| 4995_P16 (PGT-145) (antibody) | 0.144 | 0.286 |  |  |  | 0.041 |  |  |  |  |  | 0.026 | 0.4 | > 50 | 1.43 | 0.044 | 1.87 |  |
